Measured values reported in article PMC3968096.
pKd: −log10 of the molar value.

Tests used:
[1] = test system: T1, VEGF165 (soluble) (human), P15692-4; test: F-EMSA; conditions: 1 mM Mg2+, 10 mM HEPES pH 7.9, 125 mM NaCl, 25 mM KCl, 1 mM MgCl2, F-EMSA at room temperature for 2 h, 5% PAGE at 4 C, flow cytometry in the same buffer
T1 sequence: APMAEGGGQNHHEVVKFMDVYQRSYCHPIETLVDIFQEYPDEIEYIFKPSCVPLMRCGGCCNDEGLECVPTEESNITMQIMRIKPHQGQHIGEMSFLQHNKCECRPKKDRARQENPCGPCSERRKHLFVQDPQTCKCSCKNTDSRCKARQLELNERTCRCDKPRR

PDGF-A (human) = PDGF-A (human) (UniProt P04085); test: flow cytometry, yeast display; conditions: 10 mM HEPES pH 7.9, 125 mM NaCl, 25 mM KCl, 1 mM MgCl2; F-EMSA at room temperature for 2 h, 5% PAGE at 4 C; flow cytometry in the same buffer

“TAGCCCACTGCATAGAGGTAGCCACGTATGTGGGTGTTACCCATTCGTAGCTACCGGTGA [hVap1 full-length (100 nt)]” showed a pKd [1] of 8.85.
“AAAGCCCACTGCATAGAGGCCGCTCAACATGCGAGCCGGT [hVap2_T2160]” gave a pKd ([1]; same value is also printed for SL12) of 6.97.
Work on “CAGAGCAGGGCGCCGTGTCGCATAGTGTTGTCACTCCCCTGGAGGTCCATGCGAAATATG [hPAap1]” yielded a pKd (PDGF-A (human)) of 5.40.
